Experiment: yeast display, Sf9 membrane polyspecificity reagent, FACS + sequencing; frameworks hold sequencing errors
Summary of the method: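 Nanobodies came from a synthetic yeast display library in Saccharomyces cerevisiae BJ5465, induced with galactose for 36–48 hours and stained for 1 hour at 4 °C with 10% biotinylated, detergent-solubilized Sf9 membrane reagent. Cells were enriched on streptavidin microbeads and then FACS-sorted, with low and high (top ~1%) gates set on anti-HA fluorescence for expression and streptavidin fluorescence for reagent binding. Each polyreactivity label reflects the gate a clone came from. Genes were amplified by colony PCR, sequenced by MiSeq 2 × 250 and filtered by CDR length.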

Row | Sequence | polyreactivity (PSR sort gate)
1 | QVQLQESRGGLVQVGGSQRLSCAASGNIFYNYAMGWYRHANGKEREFDATINHGTSINYADSVKGRFTISRDNAKNTLYLQMNSLKPEDTAVSYCAADLSWTDNLFYWGQGTQVTVTS | low polyreactivity
2 | QVHLVESGGGLVQAGGSLRLSCAASGYTFVVYAMGWYIQAPGKERELVAAINKSGGSTYYADSVKGRFTISRDHAKNSVYLQMNSLKAEDTAFYYCAADLLKLRTDYYWGQGTQVTVSS | low polyreactivity
3 | QVQLVESGGGLVQAGGSLRLSCAASGLIFYDYAMGWYRPAPGKERELVAAITSSDSTYYADSVKGRFTISRDNAQNTVYLQMNSLKPEDTAVYYCAAKPYYFYGMDYWGQGTQVTVSS | high polyreactivity
4 | QVQLVESGGGLVQAGGSLRLSCAASGRIFDIYAMGWYRQAPGKERELVAAITTRGGSTYYADSVKGRFTISRDNAKNNVYLQMNSLKPEDTAVYYCAAAYSEDYRVIFYYWGQGTQVTVSS | low polyreactivity
5 | QVQLVESVGGLVQAGGSLRLSCAASGFTFVYNAMGWYRQAPGKEREMVAAISSRGGSTFYADSVKGRFTISRDNAKNTVYLQMNSLKPEDTAVYYCNAVPGWTYDYWGQGTQVTVSS | high polyreactivity
6 | QVQLVESGGGVVQAGGSLRISCAASGRTFGVYVMGWYRQAPGKERELVAAISSSGGRTYYADSVKGRFTISRDNAKNTFYLQMNSLKPEDTAVFYCNAVRRREERDGPPNQMDYWGQGTQVTVSS | high polyreactivity
7 | QVQLQESGGGLVQAGGSLRLSCAASGTISDRAGMGWYRQAPAKNAIVATIDRGTNTNYADSVKGRFTISRDNAKNTVYLQMNSLKPEDTAVYNCAAVGRYYIYLDYWGQGTQVTVSS | low polyreactivity
8 | QVQLVESGGGLVQAGGSLRLSCAASGGIFRHNAMGWYRQAPGKERELVAAISRSGGNTYYADSVKGRFTISRDNAKNTVYLQMNSLKPEDTAVYYCNKIEYDSWADHVYWGQGTQVTVSS | low polyreactivity
9 | QVQLVESGGGLVQAGGSLRLSCAASGSIFRLNAMGWYRQARGKERELVARIDSSGSTNYTDSVKGRFTISRDNAKNTVYLQMNSLKPEDTAVYYCAAGLVLIVGMDSWGQGTQVTVSS | low polyreactivity
10 | QVQLVESGGGLVQAGGSLRLSCAASGRIFVQYDMGWYRQAPGKERELVAAITGGGGSTYYADSVKGRFTISRDNAKNTVYLQMHSLKPEDTAVYYCAADQDVYDFTGYDYWGQGTQVTVSS | low polyreactivity
11 | QVQLVESGGGLVQAGGSLRLSCAASGSTIRQNAMGWSSQAPGKEMELVAAITYTGGSTYYADSVKGRYTISRDNAKNTVYLEMNSLKPEDTSVYYCAATYLSYYHGWVNYWGEGTQVTVSS | high polyreactivity
12 | QVQLVESGGGLVQAGGSLRLSCAASGRTFDGYTMGWYRQAPGKERELVAAISGGGGSTYYADSVKGRFTISRDNAKNTVYLQLNSLKPEDTAVYYCNKVVRQHGGLYNYWGQGTQVTVSS | low polyreactivity
13 | QVQHVESGGGLVQAVGSLRLSCAASGRIVYYVMGWYRQAPGKERELVAAISTRGGSTYYADSVKGRFTISLDNAKNTVYLQMNSLTPEDTAVYYCAASSLLTRYNSWGQGTQVTVSS | high polyreactivity
14 | QVQLVESGGGLVQAGGSLRLSCAASGRTFGGNAMGWYRQAPGKERELVAAISLSGGTTYYADSVKGRFTISRDNAKNTVYLQMNSLKPEDTAVYYCAADTAGYYDEDKDGDYWGQGTQVTVSS | low polyreactivity
15 | QVQLVESGGGLVQAGGSLRLSCAASGRIYWNTMGWYRQAPWKEREMVASISTGCGRTYYADSVKGRFTISRDNAKNTVYLQMHSLKPEDTSVYYCNAVRTVWYRYEYGYWGQGTQVTVSS | high polyreactivity
16 | QVQLVESGGGLVQAGGSLRLSCAASGSTFSENAMGWYRQAPGKERELVADITNGGSTNYADSVKGRFTISRDNAKNTVYLQMNSLKPEDTAVYYCATDSYPGLNPDFDYWGQGTQVTVSS | low polyreactivity
17 | QVHHVESGGVLVQAGRILRVSCAASGSTFPRNAMGWYRHAPGKERELDAAITSRGGRTYYADSVKGRFTISRDNAKNTVYLQMISLKPEDTAVYYCARVGGIGSGRTGYGYWGQGSQVTVSS | high polyreactivity
18 | QVQLVETGGGLVQAGGSLRLSCAASGFIFGYNARGWYRKAPGQVRELVAAISSGGRTYYADSVKGRFTISRDNAKHTVYLQMNSLKPQDTAVYYCSVDPHLYALRGAVYYWGQGTQVTVSS | low polyreactivity
19 | QVQLVESGGGLVQAGGSLSLSCAASGSTFYHYAMGWYRQAPGKERELVAAISSSGGRTYYADSVKGRFTISRDNAKYTVYLQMNSLKPEDTAVYYCAARAKTSGSIEDYWGQGTQVTVSS | high polyreactivity
20 | QVQLVESGGGLVQAGGSHGLSCAASGRTFYYYAMGWYRPAPGKERELVAAITSGGRTYYADSVKGRFTISRDNAKNTDYLQMNRLKPEDTAVYYCAADLSDPDWSRYQWDMDYWGQGTQVTVSS | low polyreactivity
21 | QVQLVESGGGLVQAGGSLRLSCAASGRIIYGNTMGWYRQAPGKEREFVATITRSGGSTYYADSVKGRFTISRDNAKNTVYLQMNSLKPEDTAVYYCNAQPSVYYGRWGLNYVYWGQGTQVTVSS | high polyreactivity

Row | Sequence | polyreactivity (PSR sort gate)
22 | QVQLQESGGGLVQAGGSLRLSCAASGTITVLYKMGWFRQAPGKEREFVASINYGTSTYYADSVKGRFTVSRDSAKNTVYLQMNCLKPEDTAVYYFAAAYRWQDVYRYWGQGTQVTVSS | low polyreactivity
23 | QVQLVESGGGLVQAGGSLRLSCAASGFIFYSYDMGWYRQAPGKERELVAANDSRGVNTYYADSVKGRFTISRDNAKNTVYLQMNSLKPEDTAVYYCAAQASSQIDYYGGHYGYWGQGTQVTVSS | low polyreactivity
24 | QVQLVEPGGGLVQAGGSLRLSCAASGSTFVEYDMGWYRQAPGKERELVAGINSGDRTNYADSVKGRFTISRDNEKNTVYLQMNSLKPEDTAVYYCAVDYRSYAYDYWGQGTQVSVSS | low polyreactivity
25 | QVQLVESGGGLVQAGGSLRLSCAASGNTLTYNVMGWYRQGPGKERELVAAISGRGGRTYYADSVKGRFTISRDNAKNTVYLQMNSLKPEATAVYDCATRDRAGYYYWGQGTQVTVSS | high polyreactivity
26 | QVQLVESGGGLVQAGGILRLSCAASGRTFNQNAMGWYRQAPGKERELVAAITSRGGSTFYAASVKGRFTISRDNAKNTVYLQMNSLKPEDTAVDYCAAPRKQLEVGPGYYWGQGTQVTVSS | high polyreactivity
27 | QVQHVESGGGLVQAGGSLRLSCAASGFTFAYYAKGWYRQAPGKERELVARISSGGSTYYADSVKGRFTISRDNAKNTVYLQMNSLKPEDTAVYYCAARSYYISPWRFDYWGQGTQVTVSS | high polyreactivity
28 | QVQLVESGGGLVQAGGSLRLSSAASGFIYRGNVMGWYRQAPGKERELVAAITWSGGSTYYADSVKGRFTISRDNAKNTVYLQMNSLKPDDTAVYYCNADLYIYEWYPALHSNDYWGQGSQVTVSS | low polyreactivity
29 | QDQHVESGGGLVQAGGSLRLSGAASGGTLWVNTMGWYRPAPGKERELVAAISRRGGSTYYADSVKGRFTISRDNAKNTVYLQMNSLKPEDTAVYYCAKGYSSHYWWAYDSWGQGTLVTVSS | high polyreactivity
30 | QVQRVESGGRLVQAGGSLRLSCAASGFIFRYYAMGWYRQAPGKERELVAAISSRGGTTYYADSVKGRFTISRDNPNNTVYLQMNSLKPEDTPVDYGAAGGGRFRHGGRDYWGQGTQVTVSS | high polyreactivity
31 | QVQLVESGGGLVQAGGSLRLSCAASGSTLYAYAMGWYRQAPGKERELVAAISFSTTSTYYADSVKGRFTISRDNAKNTVYLQMNSLKPEVTAVYYCAAEYWYYWEYEYWGQGTQVTVSS | high polyreactivity
32 | QVQLVESGGGLVQAGGSLRLSCAASGLTFDVYTMGWYRQAPGKEREFVAGITSGGSTDYADSVKGRFTISRDNAKNTVYLQMNSLKPEDTAVYYCNKPFPYYPDGPNGYDYWGQGTQVTVSS | low polyreactivity
33 | QVQLVESGGGLVQAGGSLRLSCAASGIIFDGYAMGWYRQAPGKERELVAAISGHGGSTYYADSVKGRFTISRDNAKNTVYLQMNSLKPEDTAVYYCAAEYVYWRIGQYDYWGQGTQVTVSS | high polyreactivity
34 | QVQLVESGGGLVQAGGSLRLSCAASGRIFIPYAMGWYRLAPGKERELVAAISSSAGSSYYADSVKGRFTISRDTAKNTVYLQMKSLKPEDTAVYYCAARLYWWYAFETYSSLFEYDYWGQGTQVTVSS | low polyreactivity
35 | QVQLVESGGGLDQAGGSLRLSCAASGRTFGTYVMGWSRQAPGKERELVAAITGSGGSTYYADSVKGRFTISRDIAKNSVYLQMNSLKPEDTAVYYCSAKYRRPRYGFWGQGTQVTVSS | high polyreactivity
36 | QVQLVESVGVLVQEGGSLRLSSAASGGSLPRYAMGWYRQAPGKEMELVAVITRGGSTYYADSVKGRFTISRDNAKNTVYLQMIRLIPEDTAVYYFAKYRYQTGIFYYWGQGTQVTVSS | high polyreactivity
37 | QVQLVESGGGLVQAGGSLRLSCAASGRIFLNYDMGWYRQAPGKERELVADISISGSTDYADSVKGRFTISRDNAKNTVYLQMNSLKPEDTAVYYCATSFYVSDYYVPYEMGYWGQGTQVTVSS | low polyreactivity
38 | QVQLVESGGGLVQAGGSLRLSCAASGSTFAGYAMGWYRQAPGKERELVAAIRSGGSTYYADSVKGRFTISRDNAKNTVYLQMNSLKPEDTAVYYCNAVYAFNGYDYWGQVTQVTVSS | low polyreactivity
39 | QVQLVESGGGLVQAGGSLRLSCAASGRTFQEYAMGWYRQAPGKERELVADISDGGSTNYADSVKGRFTISRDNAKNTVYLQMNSLKPEDTAVYYCAADQYHGVGINFRSDYDYWGQGTQVTVSS | low polyreactivity
40 | QVQLVESGGGLVQAGVSLRLICDAYGRIFIVNAMGWYRQAPGKERELVAAISRGGSKNYADSVKGRFTISRDNAKNTVYLQMNSLKPEDTAVYYWNGDGSSYWYPVTQHGGDYCGQGTQVTVSS | low polyreactivity
41 | QVQLVESGGGLVQPGGSLRLSCAASGFIFPTNVMGWSRQAPGKEREFVASITWRGGGTYYADSVKGRFRISRDNAKNTVYVQMNSLKPEDTAVYYCAAGRSWSSYWKYDYWGQGTQVTVSS | low polyreactivity

Reference: the nanobody polyreactivity screen of Harvey et al. (2022)
